In article PMC8482478, “N-acetylmannosamine-6-phosphate 2-epimerase uses a novel substrate-assisted mechanism to catalyze amino sugar epimerization” (The Journal of Biological Chemistry, 2021):

Target: the molecule itself
Assay: AUC; sedimentation velocity, 0.5 mg/ml SaNanE in 20 mM Tris pH 8.0, 150 mM NaCl, 50,000 rpm, 20 °C; c(s) and c(M) models in SEDFIT

B1: N-acetylmannosamine-6-phosphate 2-epimerase (NanE) from Staphylococcus aureus, wildtype (enzyme, S. aureus USA300)
chain: MLPHGLIVSCQALPDEPLHSSFIMSKMALAAYEGGAVGIRANTKEDILAIKETVDLPVIGIVKRDYDHSDVFITATSKEVDELIESQCEVIALDATLQQRPKETLDELVSYIRTHAPNVEIMADIATVEEAKNAARLGFDYIGTTLHGYTSYTQGQLLYQNDFQFLKDVLQSVDAKVIAEGNVITPDMYKRVMDLGVHCSVVGGAITRPKEITKRFVQIMED
notes: N-acetylmannosamine-6-phosphate 2-epimerase (NanE) of S. aureus USA300; also called SaNanE; wildtype SaNanE
stoichiometry N: 2
